Columns and labels:
[1] = molecular target: T1, SARS-CoV-2 S2 peptide #288 (1149-KEELDKYFKNHTSPD-1163) (SARS-CoV-2 (spike 1149-1163, matches …)); assay: ELISA; details: both partners purified
T1 chain: KEELDKYFKNHTSPD

[2] = molecular target: T2, shorter version of peptide #289 (1153-DKYFKNHTSPD-1163) (SARS-CoV-2 (spike 1153-1163, matches …)); assay: SPR; details: both partners purified
T2 chain: DKYFKNHTSPD

B1: CV3–25 IgG (antibody, V domains shown)
VH: EVQLVESGAEVKKPGESLKISCKGSGYTFTRYWIGWVRQMPGKGLEWMGIIYPGDSDTRYSPSFQGHVTISADKSISTAYLQWNSLKASDTAMYYCARLPQYCSNGVCQRWFDPWGQGTLVTVSS
VL: EIVLTQSPSSVSASVGDRVTITCRASQGISSWLAWYQQKPGKAPKLLIYAASSLQSGVPSRFSGSGSGTDFTLTISSLQPEDFATYYCQQGNSFPYTFGQGTNLEIK
binding result [1]: binds | Kd [2]: ~1000 nM
